Consider three molecules from patent US20250042956A1 (University of California, published 2025).

Assay [1] concerns the target T1, PIAL2 (yeast two hybrid GAL4 fusion) (Arabidopsis thaliana, UniProt F4JYG0 1-760).
T1 construct: cDNA cloned into Gateway Y2H vectors; not shown: GAL4-AD or GAL4-BD (pGADT7-GW / pGBKT7-GW)
T1 sequence: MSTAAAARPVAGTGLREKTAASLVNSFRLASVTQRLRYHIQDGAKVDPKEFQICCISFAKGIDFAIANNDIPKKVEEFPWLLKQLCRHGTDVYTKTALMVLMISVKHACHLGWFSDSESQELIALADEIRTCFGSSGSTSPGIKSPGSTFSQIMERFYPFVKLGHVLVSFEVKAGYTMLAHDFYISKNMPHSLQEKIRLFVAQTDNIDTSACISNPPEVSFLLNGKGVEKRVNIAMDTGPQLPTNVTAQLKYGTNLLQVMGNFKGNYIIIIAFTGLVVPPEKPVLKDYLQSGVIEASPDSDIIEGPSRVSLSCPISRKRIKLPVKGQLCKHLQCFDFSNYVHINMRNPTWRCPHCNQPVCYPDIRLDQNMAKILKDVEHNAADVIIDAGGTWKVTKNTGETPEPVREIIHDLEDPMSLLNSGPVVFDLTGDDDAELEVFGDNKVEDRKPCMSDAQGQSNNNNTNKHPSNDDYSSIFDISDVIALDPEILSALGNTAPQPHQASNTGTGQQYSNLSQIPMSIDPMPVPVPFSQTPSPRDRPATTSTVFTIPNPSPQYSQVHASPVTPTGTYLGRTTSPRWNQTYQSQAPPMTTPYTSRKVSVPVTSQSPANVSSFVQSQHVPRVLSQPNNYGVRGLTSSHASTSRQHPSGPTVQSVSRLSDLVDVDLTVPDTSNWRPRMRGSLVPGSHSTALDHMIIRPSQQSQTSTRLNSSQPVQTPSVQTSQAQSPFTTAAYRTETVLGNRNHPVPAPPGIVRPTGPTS
Put plainly: yeast two hybrid. The source says:
The cDNA sequences of PIAL1, PIAL2, MOM2, MORC6, and MOM1 CMM2 domain (aa1660-aa1860, (see e.g., Han, Plant Cell Rep., 2016)) were first cloned into gateway entry vectors followed by LR reaction with pGBKT7-GW (Addgene 61703) and pGADT7-GW (Addgene 61702) destination vectors. Pairs of plasmid DNA for the desired protein interaction to be tested were co-transformed into the yeast strain AH109. Combinations of the empty pGBKT7-GW or pGADT7-GW vectors and the plasmids of desired proteins were used for transformation of yeast cells to test for self-activation. Transformed yeast cells were plated on synthetic dropout medium without Trp and Leu (SD-TL) and incubated for 2-3 days to allow for the growth of positive colonies carrying both plasmids. Three yeast colonies of each tested protein interaction pairs were picked and mixed in 150 μl 1×TE solution, and 3 μl of the 1×TE solution with the yeast cells were blotted on synthetic dropout medium without Trp, Leu, and His (SD-TLH) and with 5 mM 3-amino-1,2,4-triazole (3AT) to inhibit background growth. Growth of yeast on SD-TLH with 5 mM 3AT medium after 2-3 days of incubation indicates the interaction between the GAL4-AD fusion protein and the GAL4-BD fusion protein.

The target of assay [2] is T2, AT4G35510.1 TRBIP1 (Arabidopsis thaliana).
T2 construct: Endogenous protein found by mass spectrometry
T2 chain: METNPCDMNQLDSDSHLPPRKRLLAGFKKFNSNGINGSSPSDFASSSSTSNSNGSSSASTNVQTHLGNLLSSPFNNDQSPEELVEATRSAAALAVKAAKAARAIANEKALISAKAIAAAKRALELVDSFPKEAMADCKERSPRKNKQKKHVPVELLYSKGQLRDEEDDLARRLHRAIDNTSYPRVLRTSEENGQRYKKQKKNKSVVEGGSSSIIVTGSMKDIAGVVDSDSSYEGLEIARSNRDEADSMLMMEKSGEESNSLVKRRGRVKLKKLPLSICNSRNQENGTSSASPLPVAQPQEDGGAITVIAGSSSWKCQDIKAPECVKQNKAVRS
Nature of the assay: IP-MS rep 1. How it is done: (§1) The method of IP-MS used in this Example has been described in a recent paper (see e.g., Xue, Nat. Comm., 2021). Ten grams of unopened floral buds from Col-0 wild type and FLAG-tag transgenic plants, including PHD1, MOM1, AIPP3, MOM2, MORC6, PIAL2, TRB1, TRB2, TRB3, JMJ14, HD2A, HD2B, and ELF7 were collected and ground into fine powder with liquid nitrogen. These samples were resuspended with 25 mL IP buffer and homogenized until lump-free by dounce homogenizer. The lysate was filtered through Miracloth and incubated with 250 μL anti-FLAG M2 magnetic beads (Sigma) at 4° C. for 2 hours. The magnetic beads were washed with IP buffer and eluted with TBS containing 250 μg/mL 3×FLAG peptides. The eluted proteins were precipitated with trichloroacetic acid (Sigma) and subject to MS analyses as described previously (see e.g., Xue, Nat. Comm., 2021).

Assay [3] concerns the target T3, AT2G17540.2 TRBIP2 (Arabidopsis thaliana).
T3 construct: Endogenous protein found by mass spectrometry
T3 chain: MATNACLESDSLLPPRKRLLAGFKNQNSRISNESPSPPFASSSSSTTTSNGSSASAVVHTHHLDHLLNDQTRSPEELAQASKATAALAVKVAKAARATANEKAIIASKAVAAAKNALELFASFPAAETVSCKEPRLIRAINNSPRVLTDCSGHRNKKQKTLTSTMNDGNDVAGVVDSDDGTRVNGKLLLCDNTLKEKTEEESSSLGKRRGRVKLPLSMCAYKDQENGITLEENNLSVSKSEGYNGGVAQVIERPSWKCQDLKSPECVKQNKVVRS
Put plainly: IP-MS rep 1. On the procedure: as §1

In assay [4] the target is T2, AT4G35510.1 TRBIP1. Nature of the assay: IP-MS rep 2. How it is done:
as §1

The target in assay [5] is T3, AT2G17540.2 TRBIP2. Nature of the assay: IP-MS rep 2. How it is done: as §1
Assay [6] concerns the target T2, AT4G35510.1 TRBIP1. Put plainly: X-link IP-MS.
In assay [7] the target is T3, AT2G17540.2 TRBIP2. Put plainly: X-link IP-MS.

B1: MORC6 (yeast two hybrid GAL4 fusion) (other, Arabidopsis thaliana, UniProt Q56Y74 1-663, looked up)
chain: MSHDRSVNVSHDAVIAKPERGTMLQSFSPRSHGSKGYSLPQDSEENRGSVGQSAGQSSTSVVDQVRSPADDAGVTSSSTICPAPVCRQFWKAGSYNDELSSKSQQPNGKNYLHVHPMFLHSNATSHKWAFGAVAELLDNAVDEIQNGATFVIVDKTTNPRDGATALLIQDDGGGMDPQAMRHCMGFGFSDKKSDSAIGRYGNGFKTSTMRLGADVIVFSRHSKNQTLTQSIGLLSYTYLTRTGHDRIVVPILDYEFNASAGEFKTLQDREHFISSLSILLEWSPFSTEAELLQQFDDVGPHGTKVIIYNMWLNSDAKLELDFDSVAEDILIEGSIKKTGSKIVNDHIASRFSYSLRVYLSILYLRIPETFKIILRGKVVEHHNVADDLMHPQYILYKPQAAGSEEALVVTTIGFLKEAPKVNLHGFCVYHKNRLIMPFWQVINYSSSRGRGVVGVLEANFVEPTHNKQDFEKTVLLQKLENRLKEMTVEYWSCHCVLIGYQVNKKPRLQIPQKVQPAGRQALSPPPGFQAVFPQGNTTSLPRVSTQPVLLEKRKEHPDSVASAALKRKVGNDDFTVPGHIRVEQFIHGSASQSQDIETVKLMEENKKLRAKCLDRKVRSQNLEVKAMNLRSELENYKSEYERLMVELQALDLVKDEHRRNVNT
notes: cDNA cloned into Gateway Y2H vectors; not shown: GAL4-AD or GAL4-BD (pGADT7-GW / pGBKT7-GW)
Consider B1, for which the binding result in assay [1] is “binds”.

B2: MOM1 CMM2 domain (yeast two hybrid GAL4 fusion) (other, Arabidopsis thaliana, UniProt Q9M658 1660-1860, looked up)
chain: TSVAEPHISGSDACEMEISEPGPQVERSTFANLFHEGGVEHSAGVTALVPSLLNNGTEQIAVQPVPQIPFPVFNDPFLHELEKLRRESENSKKTFEEKKSILKAELERKMAEVQAEFRRKFHEVEAEHNTRTTKIEKDKNLVIMNKLLANAFLSKCTDKKVSPSGAPRGKIQQLAQRAAQVSALRNYIAPQQLQASSFPAP
notes: range 1660-1860; also called MOM1 CMM2 domain (aa1660-aa1860); not shown: GAL4-AD or GAL4-BD (pGADT7-GW / pGBKT7-GW)
For the molecule B2, the binding result in assay [1] was “binds”.

B3: FLAG-TRB3 (other, not shown: small tags and cut ends)
chain: MGAPKLKWTPEEETALKAGVLKHGTGKWRTILSDPVYSTILKSRSNVDLKDKWRNISVTALWGSRKKAKLALKRTPLSGSRQDDNATAITIVSLANGDVGGQQIDAPSPPAGSCEPPRPSTSVDKIILEAITSLKRPFGPDGKSILMYIEENFKMQPDMKRLVTSRLKYLTNVGTLVKKKHKYRISQNYMAEGEGQRSPQLLLEGNKENTPKPEENGVKNLTKSQVGGEVMIMGMTEKEAAAAAARAVAEAEFAMAEAEEAAREADKAEAEAEAAHIFAKAAMKAVKYRMHSQTR
notes: FLAG-tagged TRB3 from its native promoter; tag position under the label FLAG-TRB3 not certain; also called TRB3-FLAG; TRB-FLAG
With B3, the IP-MS count in the assay with AT4G35510.1 TRBIP1 [2] turned out to be 24; with AT2G17540.2 TRBIP2 [3], 16; with AT4G35510.1 TRBIP1 [4], 38; with AT2G17540.2 TRBIP2 [5], 20; in the assay with AT4G35510.1 TRBIP1 [6], 17; with AT2G17540.2 TRBIP2 [7] it was 3.
